Assay: soluble on expression in E. coli; label from the status in PepcDB or PDB records

Sequence | soluble on expression in E. coli
MGSDKIHHHHHHEPTKLTPENYFNTPAEANSFLTGIYAILSQPTFYGGDYMYLVAGDDLSHYGGSGRGPASTGLICNNATTSDNAVTAFWYALYSGINRANMFLENIDKVNGFDAGVKEQYIAEARFLRAFYYFNLVECWGDVPFKTVSTQSVTNLNIPRTDKQEIYDFIISEMADAAETGLKSASDLAYKPGRISQSTAWGILARVYLFRAGEHYREGRNATQAEKKDYFERASFYAQKVMTAGHKLAANYWDPFIDMCSDKYNTTANESIWEAEFAGNNTSDTQAEGRIGNIIGLAGPDLSSKSDVTGAKDPGYGYAFIYSTPKLYNLYVNNGDTKRFNWSIAPFEYKEAGGKNTGVTHREFEQGKLAEVMSQYGQQRGTYQYADDTEKTTATKNFSRMCGKYRREYEADKKDKNYTSINFPILRYADVLLMIAEAENEANNGPTTLAYQCMKEVRERAGLNELPDMTQEEFRQTVKDERAMELCFEYTRRFDLIRWGEYVKNMRALVTEAQSGNNWTQGPTNVYTYFNISSTYNYFPIPDAEMSVNKDITQNNPGW | not soluble
NYGVDFSDIAGQSTSIRALEIAASGGHNIILYGPPGSGKTMLAKRLPTILPPLSYKEALEVSKIYSITGQFDNKNLVFKRPFRAPHHTSSKISLVGGGSKLFPGEISLSHNGVLFLDELLEFKRSSIEVLRQPLEDKVIRFSKSSGNVTYPANFMFISAMNLCPCGNYG | not soluble
MKTPQGNTSASRREVDTSMRNRFEFAGSSLRDRIGSILSMDQTPRPATRANIFMGRTPTPARHLPESRRMFVPDYTSTPAPTAPRQEFRFEDLSRIVAPPIEQTFIQLDSDGELTLPAESSIAVSPPPRPSSEPLRHLSQVSLSARPASTEPVRRDVHWRVHPSAKIRKCTVPKTPSFARPTKSWLNRVNRED | not soluble
AHHHHHHGSRPKVGVLLKMKREALEELEKYAEVEVIPYPSEEELKNKIHEFDGIIVSPVTKITKDVLEKAERLKVISCHSAGYDHIDVEEATRKGIYVTKVSGLLSEAVAEFAVGLLINLMRKIHYADKLIRRGEWESHVKIWTGFKGIESLYGKKVGILGMGAIGKAIARRLIPFGVELYYWSRHRKVDVESELHATYMDIDELLEKSDIVILALPLTKDTYHIINEERVKKLEGKYLVNIGRGALVDERAITEAIKQGKLKGYATDVFENEPVREHELFKYEWETVLTPHYAGLAVEAQEDVGFRAVENLISIFRGIVPEDLVNKEVLKIRPIESVKML | not soluble
TCSQPNNFPAEIPLYKQSFKNWAGDIKVDDVWTCAPRSADEVVKVANWAKDNGYKVRARGMMHNWSPLTLAAGVSCPAVVLLDTTRYLTAMSIDASGPVAKVTAQAGITMEALLTGLEKAGLGVTAAPAPGDLTLGGVLAINGHGTAIPAKGERRLAGASYGSISNLVLSLTAVVYDKASGAYALRKFARNDPQIAPLLAHVGRSLIVEATLQAAPNQRLRCQSWFNIPYGEMFAAAGSGGRTFASYLDSAGRVEAIWFPFTSNPWLKVWTVTPNKPLFSRQTDKPFNYPFSDNLPDEVTDLANKILSLGDGKLTPAFGKAQFAAASAGLVATASWDLWGWSKNLLLYVKPTTLRVTANGYAVLTRRENVQRVLNEFVTFYQARVQAYQQQGRYPMNGPVEIRVTGLDDPSEAALSGGVAPALSAIRPRPDHPEWNVAVWLDILTLPGTPYANQFYREIEQWIEANFNGSYAAVRPEWSKGWGYTDQAAWADSAMLQTTIPNAFRAGQPAAANWDAAKAALAAYDPYRLFSSPLLDSLGL | soluble
SKKLLFQFDTDATPSVFDVVVGYDGGADHITGYGNVTPDNVGAYVDGTIYTRGGKEKQSTAIFVGGGDMAAGERVFEAVKKRFFGPFRVSCMLDSNGSNTTAAAGVALVVKAAGGSVKGKKAVVLAGTGPVGMRSAALLAGEGAEVVLCGRKLDKAQAAADSVNKRFKVNVTAAETADDASRAEAVKGAHFVFTAGAIGLELLPQAAWQNESSIEIVADYNAQPPLGIGGIDATDKGKEYGGKRAFGALGIGGLKLKLHRACIAKLFESSEGVFDAEEIYKLAKEMA | soluble
MQFYAALFDFPCVPEISGPQPGNDEKSWQRDFLALTNARGTFDPWDTQTCQPCTLEGIVSRNHDAFSVADFSHNVFKYVRKNHVKTTVHWKRHWQRARMAHEFVYGEQS | not soluble
MDQENERNISRLWRAFRTVKEMVKDRGYFITQEEVELPLEDFKAKYCDSMGRPQRKMMSFQANPTEESISKFPDMGSLWVEFCDEPSVGVKTMKTFVIHIQEKNFQTGIFVYQNNITPSAMKLVPSIPPATIETFNEAALVVNITHHELVPKHIRLSSDEKRELLKRYRLKESQLPRIQRADPVALYLGLKRGEVVKIIRKSETSGRYASYRICM | soluble
MGSDKIHHHHHHMKVSADVRAMIERRKKNYSLEAPFYTSDEIFALDMEAIFRQHWIQVAVEPDVPEPGDYITVDIGNDSILIVRDDDMQVRAFHNVCRHRGARLCNTDKGSLGNIVCPYHSWTYNLNGDLMFAEHMGEQFDRCKHSLKAVHVENLAGLIFICLADNPPADFAVVRAAMEPYMLPHALASCKIAASIDIIEEGNWKLTMENNRECYHCVANHPELTISLYEYGFGYQRTPANEEGMAAFEETVARRTAQWEAMQLPSAEIERLADLVTGFRTQRLPLDRDGESQTLDAKVASKKLLGGFEQADLGGLSFWTQPNSWHHFMSDHIVSFSVIPLSAGKTLVRTKWLVHKDAREGIDYDVDNLTAVWRATNDQDRALVEYSQRGATSSAYEPGPYSPFTEGLVEKFCEWYIGRMAQYSNAPQTHDAGDTAPASHGEKVVSFKR | not soluble
MKKLTKGLGILLASSLVLGLAACGGGSDDKALSTEKITIGTTAGPHQQIAEEVQKLAKKDGLEIKIKTFDDYNTPNTALNDGDLDANNYQTIPFLEQQKKDKGYKLDVAFKTVAFPMGIYSNDIKDLKNLKKGDKIAVPNDPSNEYRGLKLFEDAGVIKLKDGVEEKATKKDIAENPLDLEIVELEASQIPAQLDEVAAAAINTNFAMGAGLSINKDAIYHEPTKDNPYPNVFVVRSANKDDEVVKTLEKYYHSDEVKAFIEKEFNGSVVPAFLEHHHHHH | soluble
MGSDKIHHHHHHMDEVLSFKRGRVPLLISMPHPGTRLTPAVDAGLVEEARALTDTDWHIPRLYDFAEELGASTLAAHYSRYVVDLNRPSDDKPLYSTATTGLYPDTLFDGRPLYREGMAPSAEERMRYLAEVWTPYHRTIAEELARLKAEFGYALLWDAHSIRSHVPHLFDGRLPDFNLGTNAGASCDPALAARLEAVCAAAEGYSHVLNGRFKGGHITRHYGQPEQHVHAVQLELAQCTYMDEQAPFAYRADLAEATRAVIRELLESLLAWGRERYA | not soluble
MTPSVAQNTKYVNLFIGTSGDNGQVAPGAAAPFGMVCVCPDNDPRSHAGYDYAVTKVSGISVNRLSGVGCSGGGGNLRIRPVAPSQELHIKKSREKATPGYYSTAFTNGIKTELTATNAMAVERYKFPRSLSAALWIDFASTFEDVATCHYKRISETCIEGYVQAKNVCGHGCYKLYFSLNTSQPLEHHHHHH | not soluble
MQDRQKAQDYRALLLADTPLIDVRAPIEFEQGAMPGAINLPLMMDDERAAVGTCYKRQGADAALALGHRLVCGDIRQQRLEAWKAAYQRFPNGYLCCARGGQRSHIVQRWLQETGIDCPLIEGGYKALRQTAIQATWQLAQKPILLIGGCTGSGKTQLVRQQPNGVDLEGLARHRGSSFGRTLNPQLSQASFENKLAVELLKINARQTLKRWVLEDEGRTIGANHLPECLRERMAQAPIAVVEDPFALRLERLREEYFIRMHHDFTHAYGDEAGWQAYSEYLHHGLFAIRRRLGLQRFAELTDTLDRALAEQLSSGSTDGHMAWLVPLLNEYYDPMYRYQLEKKAANIVFRGTWQDVANWLKAQ | not soluble
MSSLDNAPLLELDVQEWVNHEGLSNEDLRGKVVVVEVFQMLCPGCVNHGVPQAQKIHRMIDESQVQVIGLHSVFEHHDVMTPEALKVFIDEFGIKFPVAVDMPREGQRIPSTMKKYRLEGTPSIILADRKGRIRQVQFGQVDDFVLGLLLGSLLSETDET | soluble
MGSDKIHHHHHHMVREPASTLLPPTSPATPAPHRLLIGRRGMVPTGANVIWKIQSGLVRSSTWGEEGDMISLGLWGPGDLIGRPLSCLDPYELECLTAVEVVAVSDPALESHESLVRSLRYTERLLSITRLRRAEAKLASLLGWIGERFGQPGATGWEIDLRRIPLTHQVIAELSGSTRVTTTRLLGEFRQAGRIHRRDRALIVRYPETLYPPARLSA | not soluble
MGSDKIHHHHHHMRLDSISIANFRNHTLLEFEPGHSITNIYGRNGSGKTSILEAIHYCALTRGFSGNNDREYLKFGEELFTIRSSFTSGQGIATKVSITYSPKREKRILVNEQELQTFSSHIGTIPCVTFTPREMVIINGAPAERRRFIDTAICQYDRKYLSDLLLYRRILQQRNALLSSEQDPRVIDSALDVLTDQLVAIATEIVLVRKRFIEHFTSMLGGVYQWIPEGAEPSILYQSSLGHHENLYEKDKIQQVFRERFETLKQQELQRRQTLAGPHRDDLQFYLNKREIRKYASQGQQRAFLVAMKMTLQGYLYEASGEIPITLLDDLFSELDEVVSGTMVETLATKGQVIITSTEKKKGKGISFFSVDDYKSSKEP | not soluble
SNMQLDTLRRIVQEINSSVSLHDSLDIMVNQVADAMKVDVCSIYLLDERNQRYLLMASKGLNPESVGHVSLQLSEGLVGLVGQREEIVNLENASKHERFAYLPETGEEIYNSFLGVPVMYRRKVMGVLVVQNKQPQDFSEAAESFLVTLCAQLSGVIAHAHAVGNIDVFRKPSNGA | soluble
MFYDLAIGIYDLLVHLAAPFSRKPRKMMKGHWVVYDLLRQQVEKDERYIWFHAASLGEFEQGRPLIESIRERYPDYKILQTFFSPSGYEVRKNYRGADIVCYLPFDKPRNVKKFLDIVNPCMAFFIKYEFWKNYLDELHKRRIPVYSVSSIFRKDQIFFKWYGGTYRNVLKDFDHLFVQNEASKRFLAKIGITRVTVVGDTRFDRVLQIREQAKELPLVEQFKNGAFTFVAGSSWGPDEDLFIEYFNSHPEMKLIIAPHVIDENHLVEIIGKLKRPSVRYTRADEKNVRKADCLIIDCFGLLSSIYRYGEIAYIGGGFGVGIHNTLEAAVYGIPVIFGPKYQKFMEAMQLIEAGGAYSIKDYNELKTLLDRLLTDEAFLRKTGTNAGNYVIGNSGATEKVLHMINFLEHHHHHH | not soluble
MSLEKVIPVKKNNDYEIYIDDFGNMGEGIGKIDNFTVFVKDAVKGEKVRAKIIKVNKSFAIGKLIDIIEKSQDRTEPVCSIYKKCGGCQLQHLKYTEQLEFKKNKVVECLKRIGKLDLSSVRINETIGMEDPYFYRNKVQLPVGETAGEAKIGFYRERSHEIIEVDKCFIQDDSANEIILLIKRWIKEFNIEGYNEYSGKGTLRHIMIRKAFKTGQIMLVLVTNTENVPHKKELIHMITTEIQGIKGIIQNINNKKTNVILGQREITLWGESTIEDYIGEFKFNISSKSFFQVNPIQTEKLYSAALKYAGLTGKEVVFDAYCGTGTISLFLSQNAKKVYGVEIIPEAIENAKINAKQNGIENTEFIVGKSEEEIPKLIEKGIAPEVVVVDPPRKGCEKSLLHSIAEASPKTIVYVSCDPATLSRDLGILSELGYEVNEVQPVDMFPMTGHVETIVLIKRVDKEGHHHHHH | soluble
VPQQSATKLVQQWQPLLQRWGELAGVEIKFATARDIPTFEARLMAGEYDIAYMNPYHFTLVNQTPGYTALARAKNKRITGIIVARKGQSVTLDDLQEETIAFPAPRAFAASIITQSELEQKGIKFTPKYVGSHD | not soluble

Source: the DeepSol protein solubility set
